The source of these data is PMC4262410, “Identification of Dipeptidyl-Peptidase (DPP)5 and DPP7 in Porphyromonas endodontalis, Distinct from Those in Porphyromonas gingivalis” (PLoS ONE, 2014).

Residues, ends and D or L forms follow the SMILES beside them. *: point of attachment. AMC = Cc1cc(=O)oc2cc(N*)ccc12

The subject of series [1] is Cc1cc(=O)oc2cc(NC(=O)[C@H](C)NC(=O)[C@@H](N)CCCCN)ccc12. Kind of series: purified protein. The following applies: 50 mM sodium phosphate pH 7.0, 5 mM EDTA, 0.1 M NaCl, 37°C.
Description: (§2) fluorescence of released aminomethylcoumarin, Michaelis-Menten fit on PeDPP5 (MER236725)
Series [2] has as its system Cc1cc(=O)oc2cc(NC(=O)[C@H](Cc3ccccc3)NC(=O)CN)ccc12. Kind of series: purified protein. To be noted: 50 mM sodium phosphate pH 7.0, 5 mM EDTA, 0.1 M NaCl, 37°C.
Description: as §2
Series [3] has as its system Cc1cc(=O)oc2cc(NC(=O)[C@H](Cc3ccc(O)cc3)NC(=O)[C@@H](N)CO)ccc12. In words: purified protein. The following applies: 50 mM sodium phosphate pH 7.0, 5 mM EDTA, 0.1 M NaCl, 37°C.
Description: as §2
The target in the next series is T1, PeDPP7 (MER278904) (Porphyromonas endodontalis, UniProt C3JAQ3).
T1 construct: gene dpp7; 70-kDa single band; S46 family
T1 sequence (C3JAQ3 3-710): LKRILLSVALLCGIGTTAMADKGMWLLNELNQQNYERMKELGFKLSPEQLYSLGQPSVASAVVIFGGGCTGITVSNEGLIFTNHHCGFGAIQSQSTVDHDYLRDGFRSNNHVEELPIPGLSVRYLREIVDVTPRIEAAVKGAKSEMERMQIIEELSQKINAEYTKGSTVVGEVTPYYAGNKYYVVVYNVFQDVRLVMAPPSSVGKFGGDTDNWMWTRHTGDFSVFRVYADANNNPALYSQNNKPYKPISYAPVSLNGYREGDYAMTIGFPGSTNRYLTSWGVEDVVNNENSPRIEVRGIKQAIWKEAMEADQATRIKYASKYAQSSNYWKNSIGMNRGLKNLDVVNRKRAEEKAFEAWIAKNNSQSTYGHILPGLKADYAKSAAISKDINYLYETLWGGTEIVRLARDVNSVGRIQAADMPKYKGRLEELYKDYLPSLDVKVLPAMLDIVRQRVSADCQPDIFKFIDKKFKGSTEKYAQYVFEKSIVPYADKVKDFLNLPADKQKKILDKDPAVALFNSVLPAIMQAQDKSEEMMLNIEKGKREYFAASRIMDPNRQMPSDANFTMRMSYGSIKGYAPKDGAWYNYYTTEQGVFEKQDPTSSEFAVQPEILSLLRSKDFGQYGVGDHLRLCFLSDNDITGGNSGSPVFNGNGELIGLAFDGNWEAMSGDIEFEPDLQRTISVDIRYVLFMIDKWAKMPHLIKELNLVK
In words: fluorescence of released aminomethylcoumarin, hydrolysis rate. It is filed as biochemical. To be noted: 20 µM substrate, 50 mM sodium phosphate pH 7.0, 5 mM EDTA, 37°C.

Series [4] concerns Cc1cc(=O)oc2cc(NC(=O)[C@H](C)NC(=O)[C@@H](N)CCCCN)ccc12. In words: fluorescence of released aminomethylcoumarin, Michaelis-Menten fit. Type of series: biochemical, Porphyromonas gingivalis. The following applies: 50 mM sodium phosphate pH 7.0, 5 mM EDTA, 0.1 M NaCl, 37°C. The text has this: (§1) fluorescence of released aminomethylcoumarin, Michaelis-Menten fit on PgDPP5
Series [5] deals with Cc1cc(=O)oc2cc(NC(=O)[C@H](Cc3ccccc3)NC(=O)CN)ccc12. The series is described as above. It is filed as biochemical, Porphyromonas gingivalis. To be noted: 50 mM sodium phosphate pH 7.0, 5 mM EDTA, 0.1 M NaCl, 37°C.
Description: as §1

Series [6] deals with Cc1cc(=O)oc2cc(NC(=O)[C@H](Cc3ccc(O)cc3)NC(=O)[C@@H](N)CO)ccc12. The description is as above. It is filed as biochemical, Porphyromonas gingivalis. The following applies: 50 mM sodium phosphate pH 7.0, 5 mM EDTA, 0.1 M NaCl, 37°C.
Description: as §1

What is called Km is the substrate concentration at which the rate is half of its maximum. As usually defined, the kcat is the maximal rate divided by the concentration of active sites. For orientation: kcat/Km means the turnover number divided by the Michaelis constant. With “PeDPP5 (MER236725) (Porphyromonas endodontalis ATCC 35406)”, in series [1], the Km was determined as 110 ± 7 µM, the kcat was found to be 21200 ± 932 s⁻¹ and the kcat/Km came to 1.94e+08 M⁻¹ s⁻¹. Moreover, in series [2], the Michaelis-Menten constant (Km) is 993 ± 176 µM, the turnover number (kcat) was 10400 ± 1640 s⁻¹ and the catalytic efficiency (kcat/Km) stood at 1.05e+07 M⁻¹ s⁻¹. Besides, in series [3], the Michaelis constant (Km) stood at 257 ± 9 µM, the catalytic constant (kcat) is 3470 ± 87 s⁻¹ and the specificity constant (kcat/Km) came out at 1.35e+07 M⁻¹ s⁻¹.

`Cc1cc(=O)oc2cc(NC(=O)[C@H](C)NC(=O)[C@@H](N)CCCCN)ccc12` [Lys-Ala-MCA] (H-Lys-Ala-{AMC}): at PeDPP7 (MER278904), the “fluorescence of released aminomethylcoumarin, hydrolysis rate” value is “slowly hydrolyzed Leu-Gln-, Lys-Ala-, Leu-Arg-, and Ala-Asn-MCA”.

Consider “PgDPP5 (Porphyromonas gingivalis ATCC 33277)”, for which, in series [4], the Km was 185 ± 21 µM, the kcat turned out to be 1950 ± 165 s⁻¹ and the kcat/Km stood at 1.05e+07 M⁻¹ s⁻¹. In addition, in series [5], the Km was 396 ± 51 µM, the kcat came out at 5640 ± 403 s⁻¹ and the catalytic efficiency (kcat/Km) is 1.3e+07 M⁻¹ s⁻¹. In addition, in series [6], the Km was 296 ± 31 µM, the turnover number (kcat) was determined as 1330 ± 100 s⁻¹ and the catalytic efficiency (kcat/Km) is 4.49e+06 M⁻¹ s⁻¹.
